Assay results: patent publication US20110129457A1

Key:
[1] = target: fully lipid-modified Shh secreted by human HT29 cells (human) (UniProt Q15465); experiment: cell-based or functional assay
[2] = target: biotinylated-ShhN-Cys (human Shh residues 24-197, N-terminal His6-tag, biotin conjugated) (human) (UniProt Q15465); experiment: competition ELISA: 5E1 against immobilized Hhip1β12 for biotinylated ShhN-Cys
[3] = target: Human Ihh (residues 29-202), N-terminal His6-tag (human) (UniProt Q14623); experiment: SPR (BIAcore-2000), 5E1 IgG immobilized on CM5, Hh injected, 1:1 Langmuir fit
[4] = target: Shh (human Sonic hedgehog residues 25-197, N-terminal His6-tag) (human) (UniProt Q15465); experiment: as above
[5] = target: Shh649 (ShhC-Cys conjugated with DyLight 649 Maleimide) (human) (UniProt Q15465); experiment: FACS competition: 1 nM Shh649 preincubated with 5E1, then bound to Ptch1-expressing 293 cells; the blocked partner is Ptch1

Human Ihh (residues 29-202), N-terminal His6-tag (human), sequence (Q14623 other isoform, or with tags, fused parts or gaps limits assumed): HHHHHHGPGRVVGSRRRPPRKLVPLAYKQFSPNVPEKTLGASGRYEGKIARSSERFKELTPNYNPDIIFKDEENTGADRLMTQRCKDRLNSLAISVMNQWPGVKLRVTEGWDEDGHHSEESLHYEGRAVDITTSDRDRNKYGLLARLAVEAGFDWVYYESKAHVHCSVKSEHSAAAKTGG

Row | IC50, inhibition of Gli-luciferase activity in HT29/S12 co-culture [1] | IC50 [2] | Kd [3] | Kd [4] | IC50 (read off the curve) [5] | Substance
1 | 5.3 nM |  |  |  |  | Hhip1ECD (Hhip1 extracellular domain, residues 20-667), N-terminally His6-tagged (from UniProt Q96QV1 20-667) (receptor)
2 |  | 23 nM | 3 nM | 3 nM | 0.5 nM | anti-Shh monoclonal antibody 5E1
